Data published in the supplement of paper PMC10126150.
± gives the standard deviation of the averaged measurements.

Tested on: ATP
Assay: switch fluorescence ratio, 500 uM ATP over buffer (Cy3 cluster intensity, sum of 5 cycles each) (fold (ratio)); higher = stronger signal-on switching upon ATP binding; sequences stand for … in TCGTCGGCAGCGTCAGATGTGTATAAGAGACAGTTTTTTTTTTTTTTTTTTTTTTTTT…TC
Conditions: aptamer strand: ATP DNA aptamer (quencher-CACCTGGGGGAGTATTGCGGAGGAAGG + anchor), 100 nM annealed; ATP concentration: 500 uM
Method in brief: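 Imaging in selection buffer was followed by imaging after 15 min with 500 uM ATP at 22 °C, for Cy3-labelled switching-strand clusters annealed to 100 nM quencher-labelled ATP aptamer on a modified Illumina MiSeq flow-cell. Five of these buffer/ATP cycles ran, separated by NaOH stripping and re-annealing. The fluorescence ratio per cluster is summed target-cycle over summed buffer-cycle Cy3 intensity, averaged per switch-domain sequence; clusters outside 100-1000 RFU were removed.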
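Also: ATP exposure 15 min at 22 °C before imaging.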

Sequence	switch fluorescence ratio
GAATCTATTC	1.01 ± 0.061
GAATCTTAAA	0.997 ± 0.026
GAATGAAGGT	0.985 ± 0.013
GAATGAGCGT	0.9799 ± 0.003
GAATGAGTTG	0.977 ± 0.02
GAATGCATTT	1.02 ± 0.038
GAATGCGGGC	0.99 ± 0.017
GAATGCTGGT	0.966 ± 0.023
GAATGGATGG	1 ± 0.011
GAATGGGGAT	1.01 ± 0.076
GAATGGGGCC	1.01 ± 0.035
GAATGGGTAA	1.02 ± 0.033
GAATGTATTG	1.013 ± 0.006
GAATGTCTGC	0.99 ± 0.037
GAATGTTAGT	0.964 ± 0.013
GAATTAAATT	1.01 ± 0.018
GAATTAACAA	0.999 ± 0.024
GAATTAATCG	0.988 ± 0.039
GAATTAGAAA	0.999 ± 0.014
GAATTCGATC	1.02 ± 0.029
GAATTGAGCA	0.996 ± 0.019
GAATTGCTGG	1.01 ± 0.015
GAATTGGCCT	1.02 ± 0.019
GAATTGTGGG	0.989 ± 0.039
GAATTTGGGA	0.997 ± 0.013

Sequence	switch fluorescence ratio
GAATTTGTCC	0.988 ± 0.013
GAATTTGTTA	1.026 ± 0.0059
GACAAAAAAA	1.06 ± 0.012
GACAAAACTA	1.16 ± 0.064
GACACACAAA	1.18 ± 0.11
GACACACAAG	1.14 ± 0.016
GACACCAAAT	1.039 ± 0.0035
GACACGGCAT	1.13 ± 0.018
GACACTCAGG	1.083 ± 0.0013
GACAGAGGTT	1 ± 0.021
GACAGATCCC	0.982 ± 0.014
GACAGCTTGG	1.0064 ± 9.5e-05
GACAGGGAAC	1.01 ± 0.021
GACAGGGGCC	0.987 ± 0.018
GACAGGGGCG	1.19 ± 0.16
GACAGGGTTG	1.001 ± 0.0062
GACATCGGCA	1.03 ± 0.016
GACATGTAAA	1.048 ± 0.0023
GACCAGGGAT	1.088 ± 0.0031
GACCAGTAAG	0.9819 ± 0.0091
GACCCGATTA	1.02 ± 0.034
GACCCGTCAG	1.01 ± 0.013
GACCCTATTC	1.09 ± 0.05
GACCGGGCTT	0.9753 ± 0.0038
GACCGGTGGG	0.9787 ± 0.0065

Sequence	switch fluorescence ratio
GACCTATTTC	1.01 ± 0.019
GACCTGGGGC	0.973 ± 0.068
GACGAACCGG	1.051 ± 0.0095
GACGAAGTTT	1.32 ± 0.7
GACGAATCCA	1.03 ± 0.046
GACGACGATG	1.016 ± 0.0022
GACGACGTTG	1.06 ± 0.026
GACGAGTTTT	1.01 ± 0.022
GACGATGGGT	1.029 ± 0.0032
GACGATTCTT	0.97989 ± 0.00092
GACGGATGAC	1.33 ± 0.15
GACGGGAGGG	1.02 ± 0.02
GACGGGATGG	0.993 ± 0.056
GACGGGGACA	1.06 ± 0.023
GACGGGGCAG	0.995 ± 0.015
GACGGGGGCA	0.99948 ± 0.00073
GACGGGGGGT	1 ± 0.041
GACGGGTATA	1.36 ± 0.47
GACGGTAACT	1.14 ± 0.059
GACGGTGGCT	1.01 ± 0.023
GACGTAATTA	1.5 ± 0.045
GACGTATATG	0.973 ± 0.048
GACGTCAGGG	0.997 ± 0.052
GACGTGGGGC	1.131 ± 0.0064
GACGTGGTAG	1.03 ± 0.016

Sequence	switch fluorescence ratio
GACGTGTAGT	1.02 ± 0.025
GACGTTCTGT	1.03 ± 0.063
GACGTTTTGT	0.96221 ± 0.00058
GACTAAAGGT	1.01 ± 0.013
GACTAAAGTA	1.05 ± 0.074
GACTAAGACT	1.01 ± 0.026
GACTACTAGC	1.05 ± 0.045
GACTAGAGGG	0.99 ± 0.034
GACTAGGGGT	1.005 ± 0.0078
GACTCCAGGC	1.22 ± 0.069
GACTCTGGGA	1.11 ± 0.027
GACTCTTGCG	0.964 ± 0.029
GACTGATACC	1.17 ± 0.035
GACTGCTGTG	1.012 ± 0.0085
GACTGGGGTT	0.9891 ± 0.0059
GACTGGTAAT	1.047 ± 0.0072
GACTGTCGG	1.002 ± 0.0068
GACTGTGGCA	1.013 ± 0.0021
GACTGTTAAG	1.02 ± 0.017
GACTGTTACA	1.2 ± 0.017
GACTGTTGTC	0.9972 ± 0.0059
GACTTAGCTT	1.046 ± 0.0055
GACTTATGGG	1.04 ± 0.033
GACTTATTAT	1.001 ± 0.0041
GACTTATTGG	1.02 ± 0.032
